This series concerns dTao (Drosophila melanogaster). Nature of the series: fluorescence quenching (initial fluorescence, MST instrument). The note with it: inosine homopolymer strand; Pull-down: TAP buffer 50 mM Tris pH 7.5, 100 mM NaCl, 5% glycerol, 0.2% NP-40, 1.5 mM MgCl2, 60 min; quenching assay buffer not stated (dTao storage 20 mM Tris …).

As usually defined, the Kd is the concentration at which binding is half-saturated. A lower Kd goes with tighter binding. FITC-poly(I:C) displayed a Kd of 42 nM.

The values are drawn from publication PMC8636641.
